From patent CN101415728A
Values belong to the binder of their own block, whether it stands above or below them.

Target: human IGF-1R expressed on cells (human)
Test: cell-based or functional assay

- inhibition of IGF-1- and IGF-2-mediated IGF-1R phosphorylation in MCF-7 cells, EC50: < 1 nM
B1: M14-C03.G4.P.agly (antibody, part only; not given: constant regions, human IgG4, part only)
heavy, part: EVQLLESGGGLVQPGGSLRLSCAASGFTFSKYMMSWVRQAPGKGLEWVSYISPSGGLTWYADSVKGRFTISRDNSKNTLYLQMNSLRAEDTAVYYCARDGARGYGMDVWGQGTTVTVSS
light, part: DIQMTQSPATLSLSPGERATLSCRASQSVSSYLAWYQQKPGQAPRLLIYDASNRATGIPARFSGSGSGTDFTLTISSLEPEDFAVYYCQQRSNWPPEVTFGPGTKVDIK

- inhibition of IGF-1- and IGF-2-mediated IGF-1R phosphorylation in MCF-7 cells, EC50: < 1 nM
B2: M13-C06.G4.P.agly (antibody, part only; not given: constant regions, part only)
heavy, part: EVQLLESGGGLVQPGGSLRLSCAASGFTFSIYRMQWVRQAPGKGLEWVSGISPSGGTTWYADSVKGRFTISRDNSKNTLYLQMNSLRAEDTAVYYCARWSGGSGYAFDIWGQGTMVTVSS
light, part: DIQMTQSPLSLSASVGDRVTITCQASRDIRNYLNWYQQKPGKAPKLLIYDASSLQTGVPSRFGGSGSGTDFSFTIGSLQPEDIATYYCQQFDSLPHTFGQGTKLEIK
